Tests used:
[1] = biological target: superfolder Cherry (sfCherry); experiment: native gel or EMSA; native polyacrylamide gel at ∼10 mg/ml protein concentration
[2] = biological target: superfolder Cherry (sfCherry); experiment: crystal structure; sfCherry alone, 2.0 Å, space group P21, eight copies in the asymmetric unit; 0.1 M SPG buffer pH 5.0, 25% PEG 1500

percent dimer [1]: 50%
stoichiometry N [1]: 2
stoichiometry N [2]: 2
Substance: superfolder Cherry (sfCherry)

Reference: PMC3852656
